Measured values from patent publication US20260137802A1 (CRISPR THERAPEUTICS, published 2026).

What was measured:
[1] = target: cynomolgus monkey CD117 ectodomain (cynomolgus monkey); assay: BLI (Octet), biotinylated ectodomain on SA biosensor, 1:1 global fit, monomeric Fc
[2] = target: T1, human CD117 on cells (SKMEL-3 cells, CD34+ HSC) (human, UniProt P10721 26-976); assay: flow cytometry, CD34+ HSC, monomeric Fc
T1 construct: whole, on cells; also called CD117 on cell surfaces; CD117+ cells

human CD117 ectodomain [3] = target: T2, human CD117 ectodomain (human, UniProt P10721 26-524, biotinylated (BirA co-expression) where captured on streptavidin biosensors); assay: ELISA, human CD117, monovalent Fc fusion
T2 construct: extracellular domain; also called cKIT; full length AviTagged CD117 ectodomain; not shown: C-terminal AviTag or His tag
T2 sequence (P10721 26-524): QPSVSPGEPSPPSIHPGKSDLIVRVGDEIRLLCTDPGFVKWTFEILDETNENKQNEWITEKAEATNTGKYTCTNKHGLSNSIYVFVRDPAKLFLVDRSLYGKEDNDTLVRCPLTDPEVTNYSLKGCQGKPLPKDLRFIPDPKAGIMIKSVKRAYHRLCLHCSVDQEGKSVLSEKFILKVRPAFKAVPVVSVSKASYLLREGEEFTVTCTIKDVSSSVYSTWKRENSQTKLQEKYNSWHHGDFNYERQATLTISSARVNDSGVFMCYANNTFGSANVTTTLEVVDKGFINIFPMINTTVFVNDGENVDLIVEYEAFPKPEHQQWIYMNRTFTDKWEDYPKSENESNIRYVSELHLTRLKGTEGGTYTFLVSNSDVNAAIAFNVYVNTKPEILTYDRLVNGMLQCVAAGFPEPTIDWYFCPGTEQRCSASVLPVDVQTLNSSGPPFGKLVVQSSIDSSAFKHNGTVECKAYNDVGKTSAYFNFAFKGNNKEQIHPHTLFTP

human CD117 ectodomain [4] = target: T2, human CD117 ectodomain; assay: BLI (Octet), biotinylated ectodomain on SA biosensor, 1:1 global fit, monomeric Fc
Description: Pre-equilibrated streptavidin biosensors (SA, from Sartorius) were coated with biotinylated CD117 ectodomain by dipping the biosensors into wells containing an optimized dilution of human or cyno CD117 ectodomain. After re-equilibrating the biosensor tips in assay buffer, the biosensors were dipped into supernatant containing the VHH antibodies to allow association between the antibodies and the CD117 ectodomain. Finally, the biosensors were dipped into the assay buffer. The VHH antibodies disassociated from the CD117 ectodomain if association occurred. The association and dissociation of each VHH antibody was characterized qualitatively to identify VHHs that could bind both human and cyno CD117 ectodomains.
For example, kinetics parameters of the top VHH antibodies for binding to human CD117 and cynomolgus monkey CD117 ectodomain were obtained from the Octet® analysis by Biolayer Interferometry as described above. A minimum of three concentrations of purified VHH antibodies were tested per ectodomain target. The Octet® software was used to perform a global kinetic fit across all concentrations using a 1:1 binding model. This allowed determination of the kinetic parameters, association rate (kₒₙ), dissociation rate (koff) and equilibrium constant (KD) for the 9 antibodies of interest. Total chi-squared (X²) was also examined to determine the goodness of fit for the software's kinetic model.

[5] = target: T1, human CD117 on cells (SKMEL-3 cells, …); assay: flow cytometry, skMEL-3 cells, monomeric Fc
[6] = target: T3, truncated CD117 ectodomain, Domains 1-4 (UniProt P10721 26-410, limits assumed, biotinylated); assay: BLI, truncated ectodomain on SA biosensor
T3 construct: domain: Domains 1-4; not shown: AviTag
T3 sequence (P10721 26-410 limits assumed): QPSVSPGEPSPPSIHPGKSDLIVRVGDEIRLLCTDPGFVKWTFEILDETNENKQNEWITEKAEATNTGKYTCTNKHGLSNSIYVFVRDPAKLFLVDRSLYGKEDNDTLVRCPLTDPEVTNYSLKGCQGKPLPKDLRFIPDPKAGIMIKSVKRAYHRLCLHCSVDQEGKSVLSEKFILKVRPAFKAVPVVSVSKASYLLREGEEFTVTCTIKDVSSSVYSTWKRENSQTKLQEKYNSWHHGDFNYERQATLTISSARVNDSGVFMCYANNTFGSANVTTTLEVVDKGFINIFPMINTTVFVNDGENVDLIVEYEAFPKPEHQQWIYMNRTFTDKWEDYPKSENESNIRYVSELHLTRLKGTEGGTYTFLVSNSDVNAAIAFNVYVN
Protocol: (§1) To identify the approximate binding epitopes of the VHH antibodies, truncated ectodomains were expressed as fusion polypeptides with an AviTag. Additionally, biotin is added to the protein during expression to allow capture of the material onto Streptavidin-coated (SA) biosensors. SA biosensors (Sartorius) were incubated with one of the truncated ectodomains. Full length CD117 ectodomain was used as a control. […] Except for P29 and P37, all others bind Domains 1-2 and Domains 1-3. Except for P37, all others bind Domains 1-4.

[7] = target: T4, truncated CD117 ectodomain, Domains 1-3 (UniProt P10721 26-311, limits assumed, biotinylated); assay: BLI, truncated ectodomain on SA biosensor
T4 construct: domain: Domains 1-3; not shown: AviTag
T4 sequence (P10721 26-311 limits assumed): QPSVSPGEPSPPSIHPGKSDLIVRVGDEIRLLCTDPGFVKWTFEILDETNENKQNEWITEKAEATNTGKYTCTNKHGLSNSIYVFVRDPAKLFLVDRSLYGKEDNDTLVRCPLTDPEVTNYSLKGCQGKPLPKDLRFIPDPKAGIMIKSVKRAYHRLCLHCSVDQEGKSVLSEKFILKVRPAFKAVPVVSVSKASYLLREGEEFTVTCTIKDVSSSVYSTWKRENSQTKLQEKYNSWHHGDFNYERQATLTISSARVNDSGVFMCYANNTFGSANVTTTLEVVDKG
Protocol: as §1

[8] = target: T5, truncated CD117 ectodomain, Domain 1 (UniProt P10721 26-112, limits assumed, biotinylated); assay: BLI, truncated ectodomain on SA biosensor
T5 construct: domain: Domain 1; not shown: AviTag
T5 sequence (P10721 26-112 limits assumed): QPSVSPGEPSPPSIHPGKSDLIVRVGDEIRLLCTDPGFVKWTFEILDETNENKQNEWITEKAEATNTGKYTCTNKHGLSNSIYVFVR
Protocol: as §1

[9] = target: T6, truncated CD117 ectodomain, Domains 1-2 (UniProt P10721 26-208, limits assumed, biotinylated); assay: BLI, truncated ectodomain on SA biosensor
T6 construct: domain: Domains 1-2; not shown: AviTag
T6 sequence (P10721 26-208 limits assumed): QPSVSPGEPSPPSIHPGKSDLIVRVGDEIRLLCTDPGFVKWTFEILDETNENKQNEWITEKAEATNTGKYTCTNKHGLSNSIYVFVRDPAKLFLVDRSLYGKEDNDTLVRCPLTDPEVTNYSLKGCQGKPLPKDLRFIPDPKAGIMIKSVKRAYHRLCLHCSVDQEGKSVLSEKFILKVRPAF
Protocol: as §1

T1 sequence (P10721 26-976): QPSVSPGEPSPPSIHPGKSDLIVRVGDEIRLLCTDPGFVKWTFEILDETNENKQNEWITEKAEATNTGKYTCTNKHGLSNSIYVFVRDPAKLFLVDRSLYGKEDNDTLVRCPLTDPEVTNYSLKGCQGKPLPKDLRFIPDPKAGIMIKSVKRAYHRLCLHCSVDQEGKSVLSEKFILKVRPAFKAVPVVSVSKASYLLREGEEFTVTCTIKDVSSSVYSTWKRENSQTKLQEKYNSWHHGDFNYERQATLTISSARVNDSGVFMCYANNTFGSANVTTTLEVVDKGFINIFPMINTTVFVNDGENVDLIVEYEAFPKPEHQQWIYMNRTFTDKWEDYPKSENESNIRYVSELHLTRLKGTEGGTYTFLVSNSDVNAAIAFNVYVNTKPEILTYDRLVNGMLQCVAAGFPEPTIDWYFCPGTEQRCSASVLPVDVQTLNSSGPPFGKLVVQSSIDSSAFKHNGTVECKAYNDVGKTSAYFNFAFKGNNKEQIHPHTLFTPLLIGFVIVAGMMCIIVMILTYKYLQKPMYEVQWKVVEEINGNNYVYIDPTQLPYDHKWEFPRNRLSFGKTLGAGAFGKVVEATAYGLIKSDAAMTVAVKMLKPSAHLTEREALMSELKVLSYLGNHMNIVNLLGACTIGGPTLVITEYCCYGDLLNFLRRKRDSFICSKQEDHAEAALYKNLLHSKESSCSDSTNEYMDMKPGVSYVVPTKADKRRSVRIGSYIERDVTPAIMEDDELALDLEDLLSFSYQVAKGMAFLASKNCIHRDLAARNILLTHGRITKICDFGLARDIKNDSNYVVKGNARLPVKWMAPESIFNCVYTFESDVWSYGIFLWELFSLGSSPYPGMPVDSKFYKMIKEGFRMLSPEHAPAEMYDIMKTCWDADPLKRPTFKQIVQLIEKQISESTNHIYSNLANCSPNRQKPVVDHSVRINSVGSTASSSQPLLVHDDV

| Binder | Kd [1] [nM] | EC50 [2] [nM] | Kd (human CD117 ectodomain [3]) [nM] | Kd (human CD117 ectodomain [4]) [nM] | EC50 [5] [nM] | binding result [6] | binding result [7] | binding result [8] | binding result [9] |
| --- | --- | --- | --- | --- | --- | --- | --- | --- | --- |
| P-0038 (Fc fusion, Any second Fc chain without VHH is not described in the text; also called monovalent form of P38; not shown: Fc fragment) EVQLVESGGGLVQAGGSLRLSCAASGRTSGSYVMGWFRQAPGKEREFVAAISWSAGMTYYADSVKGRFTISRDNAKNTVYLQMNSLKPEDTAVYYCAADQRGVPAYYSDYALYDYWGQGTQVTVSS | 19 | 10 | 1 | 8.85 | 10 | – | – | – | – |
| P-0037 (Fc fusion, Any second Fc chain without VHH is not described in the text; also called monovalent form of P37; not shown: Fc fragment) QVQLVESGGGLVQAGDSLRLSCAVSGRTLSNYFMAWLRQAPGKEREFVAAIHWSLGSTYYQDPVKGRFTISRDKAKNTVYLQMNTLKPEDTATYICAAGQHLSGLGGSAWSIEGDYWGQGTQVTVSS | 25 | > 50 | 0.97 | 28 | 20 | – | – | – | – |
| P37 (VHH, also called P37/P58; anti-CD117 VHH P37) VHH: QVQLVESGGGLVQAGDSLRLSCAVSGRTLSNYFMAWLRQAPGKEREFVAAIHWSLGSTYYQDPVKGRFTISRDKAKNTVYLQMNTLKPEDTATYICAAGQHLSGLGGSAWSIEGDYWGQGTQVTVSS | – | – | – | – | – | no binding | no binding | no binding | no binding |
| P-0031 (Fc fusion, Any second Fc chain without VHH is not described in the text; also called monovalent form of P31; not shown: Fc fragment) EVQLVESGGGLVRAGGSLRLSCAASGRTFTYDARAWFRQAPGKEREFVAAISWSGGSTYYPNSMKGRFTISRDNAKNTVYLQMNSLKPEDTAVYYCAADESFPAYYSDYALYRYWGQGTLVTVSS | 1.62 | 4 | 0.52 | 7.42 | 3 | – | – | – | – |
| P-0035 (Fc fusion, Any second Fc chain without VHH is not described in the text; also called monovalent form of P35; not shown: Fc fragment) QVQLVESGGGLVQAGGSLRLSCAASGGTFSIYPVGWFRQAPGKQREFVAAIGWSASGTYYGDSVEGRFTVSRDNARSTVYLRMSSLKPDDTAVYYCAAASGSNWRLGAIDEYDSWGQGTQVTVSS | 7.02 | 30 | 1.91 | 2.89 | 10 | – | – | – | – |
| P29 (VHH, also called P29/P54; anti-CD117 VHH P29) VHH: QVHLVESGGGLVQAGGSLGLSCAASGHTFSNYAMGWFRQAPGKEREFVAAISWSGGSTLYADSVKGRFTISRDNGENTVYLQMNSLKPEDTAVYYCALDSTGVYGTGYVSSRKGRYEYWGQGTLVTVSS | – | – | – | – | – | – | no binding | no binding | no binding |
